# Patent US20240270846A1 (published 2024)
# Target: T1, CD3 epsilon homodimer protein (UniProt P07766 23-126)
# T1 construct: construct not described; homodimer as printed; also called CD3 (CD3 epsilon)
# Test: SPR Biacore T200, CD3 epsilon homodimer immobilized; vs unaltered GLS3000;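 note: antibody variants flowed as analyte over CD3 epsilon homodimer amine-coupled to a CM4 chip, at 25 °C in HBS-EP+ running buffer, fitted with Biacore T200 Evaluation Software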
# T1 sequence (P07766 23-126): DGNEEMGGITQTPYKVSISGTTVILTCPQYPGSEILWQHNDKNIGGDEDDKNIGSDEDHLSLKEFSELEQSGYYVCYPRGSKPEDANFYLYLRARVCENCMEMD
row,Binder,KD ratio to GLS3000 (Affinity up)
1,"GLS3000 R24G (Kabat) L chain altered form, one-arm antibody with CE115HA000 (antibody, human IgG1, kappa, L234A L235A, N297A, name in Kabat numbering, one-arm antibody) heavy: QVQLVESGGGVVQPGRSLRLSCAASGFTFSNAWMHWVRQAPGKGLEWVAQIKAKSNNYATYYAESVKGRFTISRDDSKNSLYLQMNSLKTEDTAVYYCRYVHYGAYYGVDAWGQGTTVTVSSASTKGPSVFPLAPSSKSTSGGTAALGCLVKDYFPEPVTVSWNSGALTSGVHTFPAVLQSSGLYSLSSVVTVPSSSLGTQTYICNVNHKPSNTKVDKKVEPKSCDKTHTCPPCPAPEAAGGPSVFLFPPKPKDTLMISRTPEVTCVVVDVSHEDPEVKFNWYVDGVEVHNAKTKPREEQYASTYRVVSVLTVLHQDWLNGKEYKCKVSNKALPAPIEKTISKAKGQPREPQVYTLPPSRCELTKNQVSLSCAVKGFYPSDIAVEWESNGQPENNYKTTPPVLDSDGSFFLVSKLTVDKSRWQQGNVFSCSVMHEALHNHYTQKSLSLSPDYKDDDDK EPKSSDKTHTCPPCPAPELLGGPSVFLFPPKPKDTLMISRTPEVTCVVVDVSHEDPEVKFNWYVDGVEVHNAKTKPREEQYNSTYRVVSVLTVLHQDWLNGKEYKCKVSNKALPAPIEKTISKAKGQPREPQVCTLPPSRDELTKNQVSLWCLVKGFYPSDIAVEWESNGQPENNYKTTPPVLDSDGSFFLYSKLTVDKSRWQQGNVFSCSVMHEALHNRYTQKSLSLSP light: DIVMTQSPLSLPVTPGEPASISCGSSQSLVHSNRNTYLHWYQQKPGQAPRLLIYKVSNRFSGVPDRFSGSGSGTDFTLKISRVEAEDVGVYYCGQGTQVPYTFGQGTKLEIKRTVAAPSVFIFPPSDEQLKSGTASVVCLLNNFYPREAKVQWKVDNALQSGNSQESVTEQDSKDSTYSLSSTLTLSKADYEKHKVYACEVTHQGLSSPVTKSFNRGEC",0.92
2,"GLS3000 R24Q (Kabat) L chain altered form, one-arm antibody with CE115HA000 (antibody, human IgG1, kappa, L234A L235A, N297A, name in Kabat numbering, one-arm antibody) heavy: QVQLVESGGGVVQPGRSLRLSCAASGFTFSNAWMHWVRQAPGKGLEWVAQIKAKSNNYATYYAESVKGRFTISRDDSKNSLYLQMNSLKTEDTAVYYCRYVHYGAYYGVDAWGQGTTVTVSSASTKGPSVFPLAPSSKSTSGGTAALGCLVKDYFPEPVTVSWNSGALTSGVHTFPAVLQSSGLYSLSSVVTVPSSSLGTQTYICNVNHKPSNTKVDKKVEPKSCDKTHTCPPCPAPEAAGGPSVFLFPPKPKDTLMISRTPEVTCVVVDVSHEDPEVKFNWYVDGVEVHNAKTKPREEQYASTYRVVSVLTVLHQDWLNGKEYKCKVSNKALPAPIEKTISKAKGQPREPQVYTLPPSRCELTKNQVSLSCAVKGFYPSDIAVEWESNGQPENNYKTTPPVLDSDGSFFLVSKLTVDKSRWQQGNVFSCSVMHEALHNHYTQKSLSLSPDYKDDDDK EPKSSDKTHTCPPCPAPELLGGPSVFLFPPKPKDTLMISRTPEVTCVVVDVSHEDPEVKFNWYVDGVEVHNAKTKPREEQYNSTYRVVSVLTVLHQDWLNGKEYKCKVSNKALPAPIEKTISKAKGQPREPQVCTLPPSRDELTKNQVSLWCLVKGFYPSDIAVEWESNGQPENNYKTTPPVLDSDGSFFLYSKLTVDKSRWQQGNVFSCSVMHEALHNRYTQKSLSLSP light: DIVMTQSPLSLPVTPGEPASISCQSSQSLVHSNRNTYLHWYQQKPGQAPRLLIYKVSNRFSGVPDRFSGSGSGTDFTLKISRVEAEDVGVYYCGQGTQVPYTFGQGTKLEIKRTVAAPSVFIFPPSDEQLKSGTASVVCLLNNFYPREAKVQWKVDNALQSGNSQESVTEQDSKDSTYSLSSTLTLSKADYEKHKVYACEVTHQGLSSPVTKSFNRGEC",0.87
3,"GLS3000 R24T (Kabat) L chain altered form, one-arm antibody with CE115HA000 (antibody, human IgG1, kappa, L234A L235A, N297A, name in Kabat numbering, one-arm antibody) heavy: QVQLVESGGGVVQPGRSLRLSCAASGFTFSNAWMHWVRQAPGKGLEWVAQIKAKSNNYATYYAESVKGRFTISRDDSKNSLYLQMNSLKTEDTAVYYCRYVHYGAYYGVDAWGQGTTVTVSSASTKGPSVFPLAPSSKSTSGGTAALGCLVKDYFPEPVTVSWNSGALTSGVHTFPAVLQSSGLYSLSSVVTVPSSSLGTQTYICNVNHKPSNTKVDKKVEPKSCDKTHTCPPCPAPEAAGGPSVFLFPPKPKDTLMISRTPEVTCVVVDVSHEDPEVKFNWYVDGVEVHNAKTKPREEQYASTYRVVSVLTVLHQDWLNGKEYKCKVSNKALPAPIEKTISKAKGQPREPQVYTLPPSRCELTKNQVSLSCAVKGFYPSDIAVEWESNGQPENNYKTTPPVLDSDGSFFLVSKLTVDKSRWQQGNVFSCSVMHEALHNHYTQKSLSLSPDYKDDDDK EPKSSDKTHTCPPCPAPELLGGPSVFLFPPKPKDTLMISRTPEVTCVVVDVSHEDPEVKFNWYVDGVEVHNAKTKPREEQYNSTYRVVSVLTVLHQDWLNGKEYKCKVSNKALPAPIEKTISKAKGQPREPQVCTLPPSRDELTKNQVSLWCLVKGFYPSDIAVEWESNGQPENNYKTTPPVLDSDGSFFLYSKLTVDKSRWQQGNVFSCSVMHEALHNRYTQKSLSLSP light: DIVMTQSPLSLPVTPGEPASISCTSSQSLVHSNRNTYLHWYQQKPGQAPRLLIYKVSNRFSGVPDRFSGSGSGTDFTLKISRVEAEDVGVYYCGQGTQVPYTFGQGTKLEIKRTVAAPSVFIFPPSDEQLKSGTASVVCLLNNFYPREAKVQWKVDNALQSGNSQESVTEQDSKDSTYSLSSTLTLSKADYEKHKVYACEVTHQGLSSPVTKSFNRGEC",1.03
4,"GLS3000 R24S (Kabat) L chain altered form, one-arm antibody with CE115HA000 (antibody, human IgG1, kappa, L234A L235A, N297A, name in Kabat numbering, one-arm antibody) heavy: QVQLVESGGGVVQPGRSLRLSCAASGFTFSNAWMHWVRQAPGKGLEWVAQIKAKSNNYATYYAESVKGRFTISRDDSKNSLYLQMNSLKTEDTAVYYCRYVHYGAYYGVDAWGQGTTVTVSSASTKGPSVFPLAPSSKSTSGGTAALGCLVKDYFPEPVTVSWNSGALTSGVHTFPAVLQSSGLYSLSSVVTVPSSSLGTQTYICNVNHKPSNTKVDKKVEPKSCDKTHTCPPCPAPEAAGGPSVFLFPPKPKDTLMISRTPEVTCVVVDVSHEDPEVKFNWYVDGVEVHNAKTKPREEQYASTYRVVSVLTVLHQDWLNGKEYKCKVSNKALPAPIEKTISKAKGQPREPQVYTLPPSRCELTKNQVSLSCAVKGFYPSDIAVEWESNGQPENNYKTTPPVLDSDGSFFLVSKLTVDKSRWQQGNVFSCSVMHEALHNHYTQKSLSLSPDYKDDDDK EPKSSDKTHTCPPCPAPELLGGPSVFLFPPKPKDTLMISRTPEVTCVVVDVSHEDPEVKFNWYVDGVEVHNAKTKPREEQYNSTYRVVSVLTVLHQDWLNGKEYKCKVSNKALPAPIEKTISKAKGQPREPQVCTLPPSRDELTKNQVSLWCLVKGFYPSDIAVEWESNGQPENNYKTTPPVLDSDGSFFLYSKLTVDKSRWQQGNVFSCSVMHEALHNRYTQKSLSLSP light: DIVMTQSPLSLPVTPGEPASISCSSSQSLVHSNRNTYLHWYQQKPGQAPRLLIYKVSNRFSGVPDRFSGSGSGTDFTLKISRVEAEDVGVYYCGQGTQVPYTFGQGTKLEIKRTVAAPSVFIFPPSDEQLKSGTASVVCLLNNFYPREAKVQWKVDNALQSGNSQESVTEQDSKDSTYSLSSTLTLSKADYEKHKVYACEVTHQGLSSPVTKSFNRGEC",0.97
5,"GLS3000 R24Y (Kabat) L chain altered form, one-arm antibody with CE115HA000 (antibody, human IgG1, kappa, L234A L235A, N297A, name in Kabat numbering, one-arm antibody) heavy: QVQLVESGGGVVQPGRSLRLSCAASGFTFSNAWMHWVRQAPGKGLEWVAQIKAKSNNYATYYAESVKGRFTISRDDSKNSLYLQMNSLKTEDTAVYYCRYVHYGAYYGVDAWGQGTTVTVSSASTKGPSVFPLAPSSKSTSGGTAALGCLVKDYFPEPVTVSWNSGALTSGVHTFPAVLQSSGLYSLSSVVTVPSSSLGTQTYICNVNHKPSNTKVDKKVEPKSCDKTHTCPPCPAPEAAGGPSVFLFPPKPKDTLMISRTPEVTCVVVDVSHEDPEVKFNWYVDGVEVHNAKTKPREEQYASTYRVVSVLTVLHQDWLNGKEYKCKVSNKALPAPIEKTISKAKGQPREPQVYTLPPSRCELTKNQVSLSCAVKGFYPSDIAVEWESNGQPENNYKTTPPVLDSDGSFFLVSKLTVDKSRWQQGNVFSCSVMHEALHNHYTQKSLSLSPDYKDDDDK EPKSSDKTHTCPPCPAPELLGGPSVFLFPPKPKDTLMISRTPEVTCVVVDVSHEDPEVKFNWYVDGVEVHNAKTKPREEQYNSTYRVVSVLTVLHQDWLNGKEYKCKVSNKALPAPIEKTISKAKGQPREPQVCTLPPSRDELTKNQVSLWCLVKGFYPSDIAVEWESNGQPENNYKTTPPVLDSDGSFFLYSKLTVDKSRWQQGNVFSCSVMHEALHNRYTQKSLSLSP light: DIVMTQSPLSLPVTPGEPASISCYSSQSLVHSNRNTYLHWYQQKPGQAPRLLIYKVSNRFSGVPDRFSGSGSGTDFTLKISRVEAEDVGVYYCGQGTQVPYTFGQGTKLEIKRTVAAPSVFIFPPSDEQLKSGTASVVCLLNNFYPREAKVQWKVDNALQSGNSQESVTEQDSKDSTYSLSSTLTLSKADYEKHKVYACEVTHQGLSSPVTKSFNRGEC",0.94
6,"GLS3000 R24P (Kabat) L chain altered form, one-arm antibody with CE115HA000 (antibody, human IgG1, kappa, L234A L235A, N297A, name in Kabat numbering, one-arm antibody) heavy: QVQLVESGGGVVQPGRSLRLSCAASGFTFSNAWMHWVRQAPGKGLEWVAQIKAKSNNYATYYAESVKGRFTISRDDSKNSLYLQMNSLKTEDTAVYYCRYVHYGAYYGVDAWGQGTTVTVSSASTKGPSVFPLAPSSKSTSGGTAALGCLVKDYFPEPVTVSWNSGALTSGVHTFPAVLQSSGLYSLSSVVTVPSSSLGTQTYICNVNHKPSNTKVDKKVEPKSCDKTHTCPPCPAPEAAGGPSVFLFPPKPKDTLMISRTPEVTCVVVDVSHEDPEVKFNWYVDGVEVHNAKTKPREEQYASTYRVVSVLTVLHQDWLNGKEYKCKVSNKALPAPIEKTISKAKGQPREPQVYTLPPSRCELTKNQVSLSCAVKGFYPSDIAVEWESNGQPENNYKTTPPVLDSDGSFFLVSKLTVDKSRWQQGNVFSCSVMHEALHNHYTQKSLSLSPDYKDDDDK EPKSSDKTHTCPPCPAPELLGGPSVFLFPPKPKDTLMISRTPEVTCVVVDVSHEDPEVKFNWYVDGVEVHNAKTKPREEQYNSTYRVVSVLTVLHQDWLNGKEYKCKVSNKALPAPIEKTISKAKGQPREPQVCTLPPSRDELTKNQVSLWCLVKGFYPSDIAVEWESNGQPENNYKTTPPVLDSDGSFFLYSKLTVDKSRWQQGNVFSCSVMHEALHNRYTQKSLSLSP light: DIVMTQSPLSLPVTPGEPASISCPSSQSLVHSNRNTYLHWYQQKPGQAPRLLIYKVSNRFSGVPDRFSGSGSGTDFTLKISRVEAEDVGVYYCGQGTQVPYTFGQGTKLEIKRTVAAPSVFIFPPSDEQLKSGTASVVCLLNNFYPREAKVQWKVDNALQSGNSQESVTEQDSKDSTYSLSSTLTLSKADYEKHKVYACEVTHQGLSSPVTKSFNRGEC",0.34
